According to PMC4257621, “Structural implications of the C-terminal tail in the catalytic and stability properties of manganese peroxidases from ligninolytic fungi” (Acta Crystallographica Section D: Biological Crystallography, 2014):

Substrate: CCn1c(=NN=c2sc3cc(S(=O)(=O)O)ccc3n2CC)sc2cc(S(=O)(=O)O)ccc21
Experiment: purified protein
Type: biochemical, Gelatoporia subvermispora
Settings: 0.1 M tartrate pH 3.5, 25°C, 0.1 mM H2O2, no Mn2+, micro and ± signs lost in table, µM supported by b43

Row | Protein | Km | kcat | kcat/Km
1 | MnP6 short variant (Gelatoporia subvermispora B; D200V) (protein) AVCSDGTRVSNAVCCDFVSLGQDLQSMVLQGDCGEDAHEIIRLTFHDAVAISRKLGPSAGGGADGSMLLFPLVEPEFAASNGIDDSVNNLIPFLSLHPTISAGDLVQFAGAVALSNCPGAPRVQFLAGRPNHTIAAIDGLIPEPQDNVTSILERFDDAGGFTPFEVVSLLASHTIARAVKVDPTLDAAPFDTTPFTFDSQIFLEVLLKGVGFPGLDNNTGEVSSPLPLGDTSTGGKDTGLMRLQSDFALAHDPRTACFWQGFVDQQEFMSQSFASAFAKLAVLGHNTDDLIDCSEVVPVPKPAVDKPTTFPATTGPQDLELSCLAERFPTLSVDPGAQETLIPHCSD | 288 ± 12 µM | 76 ± 1 s⁻¹ | 263000 M⁻¹ s⁻¹
2 | MnP13 (short) (Gelatoporia subvermispora B) (protein) VTCPDGVNTVANAACCPLFAVRDDIQESLFDGGKCGEEVHESLRLTFHDAIGFSPSLTAQGKFGGGGADGSIAIFESIETGYHANLGIDEIINEQATFILKHNMTAGDFIQFAGAVGVSNCPGAPQLEFLLGRPAATAPAPDKTVPEPFDTVDSILARFGDAGFSPQEVIALLASHSVAAADHVDPAIPGTPFDSTPSDFDPQIFIEVQLRGTLFPGTGGNQGEVESPYPGEIRLQSDHNLARDSRTACFWQSLANNQQQMQAQFKAAMAKLAVLGQDVSQMVDCSDVIPVPLPPATTPHIPAGLSQNNIEQACATAAFPTLPIDVGPQTSIPPVPGS | 2440 ± 200 µM | 93 ± 3 s⁻¹ | 38000 M⁻¹ s⁻¹
